# “Also recorded” adds a separate entry of the source.
# T1: Fusion protein FP#3 (GST fused with insert SEQ ID NO:4)
# T1 chain: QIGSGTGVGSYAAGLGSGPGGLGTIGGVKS
# T2: Fusion Protein No:1 (GST fused with insert SEQ ID NO:2)
# T2 chain: QIKS
# T3: Fusion protein FP#2 (GST fused with insert SEQ ID NO:3)
# T3 chain: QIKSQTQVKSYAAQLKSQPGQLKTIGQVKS
# B1: tissue transglutaminase from guinea pig's liver (protein)
# chain: AEDLILERCDLQLEVNGRDHRTADLCRERLVLRRGQPFWLTLHFEGRGYEAGVDTLTFNAVTGPDPSEEAGTMARFSLSSAVEGGTWSASAVDQQDSTVSLLLSTPADAPIGLYRLSLEASTGYQGSSFVLGHFILLYNPRCPADAVYMDSDQERQEYVLTQQGFIYQGSAKFINGIPWNFGQFEDGILDICLMLLDTNPKFLKNAGQDCSRRSRPVYVGRVVSAMVNCNDDQGVLQGRWDNNYSDGVSPMSWIGSVDILRRWKDYGCQRVKYGQCWVFAAVACTVLRCLGIPTRVVTNFNSAHDQNSNLLIEYFRNESGEIEGNKSEMIWNFHCWVESWMTRPDLEPGYEGWQALDPTPQEKSEGTYCCGPVPVRAIKEGHLNVKYDAPFVFAEVNADVVNWIRQKDGSLRKSINHLVVGLKISTKSVGRDEREDITHTYKYPEGSEEEREAFVRANHLNKLATKEEAQEETGVAMRIRVGQNMTMGSDFDIFAYITNGTAESHECQLLLCARIVSYNGVLGPVCSTNDLLNLTLDPFSENSIPLHILYEKYGDYLTESNLIKVRGLLIEPAANSYVLAERDIYLENPEIKIRVLGEPKQNRKLIAEVSLKNPLPVPLLGCIFTVEGAGLTKDQKSVEVPDPVEAGEQAKVRVDLLPTEVGLHKLVVNFECDKLKAVKGYRNVIIGPA
# B2: Thrombin-activated factor XIII (human blood factor XIII) (protein)
# chain: GVNLQEFLNVTSVHLFKERWDTNKVDHHTDKYENNKLIVRRGQSFYVQIDFSRPYDPRRDLFRVEYVIGRYPQENKGTYIPVPIVSELQSGKWGAKIVMREDRSVRLSIQSSPKCIVGKFRMYVAVWTPYGVLRTSRNPETDTYILFNPWCEDDAVYLDNEKEREEYVLNDIGVIFYGEVNDIKTRSWSYGQFEDGILDTCLYVMDRAQMDLSGRGNPIKVSRVGSAMVNAKDDEGVLVGSWDNIYAYGVPPSAWTGSVDILLEYRSSENPVRYGQCWVFAGVFNTFLRCLGIPARIVTNYFSAHDNDANLQMDIFLEEDGNVNSKLTKDSVWNYHCWNEAWMTRPDLPVGFGGWQAVDSTPQENSDGMYRCGPASVQAIKHGHVCFQFDAPFVFAEVNSDLIYITAKKDGTHVVENVDATHIGKLIVTKQIGGDGMMDITDTYKFQEGQEEERLALETALMYGAKKPLNTEGVMKSRSNVDMDFEVENAVLGKDFKLSITFRNNSHNRYTITAYLSANITFYTGVPKAEFKKETFDVTLEPLSFKKEAVLIQAGEYMGQLLEQASLHFFVTARINETRDVLAKQKSTVLTIPEIIIKVRGTQVVGSDMTVTVEFTNPLKETLRNVWVHLDGPGVTRPMKKMFREIRPNSTVQWEEVCRPWVSGHRKLIASMSSDSLRHVYGELDVQIQRRPSM
# B3: mouse coagulating gland transglutaminase (TG4) (protein)
# chain: MDSRNVLIIYAVNVERKLNAAAHHTSEYQTKKLVLRRGQIFTLKVILNRPLQPQDELKVTFTSGQRDPPYMVELDPVTSYRSKGWQVKIAKQSGVEVILNVISAADAVVGRYKMRVNEYKAGVFYLLFNPWCSDDSVFMASEEERAEYILNDTGYMYMGFAKQIKEKPWTFGQFEKHILSCCFNLLFQLENNEMQNPVLVSRAICTMMCAANGGVLMGNWTGDYADGTAPYVWTSSVPILQQHYVTRMPVRYGQCWVFSGILTTALRAVGIPARSVTNFESAHDTEKNLTVDIYLDESGKTIPHLTKDSVWNFHVWTDAWMKRQDLPHGYDGWQVLDSTPQEISDGGFRTGPSPLTAIRQGLIQMKYDTTFVFTEVNGDKFIWLVKQNQEREKNILIAVETASLGKKISTKMVGENRREDITLQYRFPEGSPEERKVMAKASGKPSDDKLNSRTLNNSLQISVLQNSLELGAPIYLTITLKRKTATPQNVNISCSLNLQTYTGNKKTNLGVIQKTVQIHGQESRVFLTMDASYYIYKLGMVDDEMVIGGFIIAEIVDSGERVATDTTLCFLYSAFSVEMPSTGKVKQPLVITSKFTNTLPIPLTNIKFSVESLGLANMKSWEQETVPPGKTITFQMECTPVKAGPQKFIVKFISRQVKEVHAEKVVLISK
# How the values were obtained:
# [1] = target: T1, Fusion protein FP#3 (GST fused with …)
# [2] = target: T2, Fusion Protein No:1 (GST fused with …)
# [3] = target: T3, Fusion protein FP#2 (GST fused with …)
Protein,"cross-linking by transglutaminase, SDS-PAGE [1]","cross-linking by transglutaminase, SDS-PAGE [2]","cross-linking by transglutaminase, SDS-PAGE [3]"
B1,the enzyme was able to cross-link FP#3,"FP#1 was cross-linked to a dimer by the enzyme reaction; also recorded: FP#1, with the essential sequence of QXKS/T, is a good substrate of transglutaminases from different sources",the enzyme-catalyzed cross-links of FP#2 were very striking ... There were almost no FP#2 monomer left after the enzyme reaction
B2,–,"FP#1, with the essential sequence of QXKS/T, is a good substrate of transglutaminases from different sources",–
B3,–,"FP#1, with the essential sequence of QXKS/T, is a good substrate of transglutaminases from different sources",–

# From patent US20040254347
